± gives the uncertainty stated by the source.
Assay: self-splicing fitness, log relative to wild type (ln ratio); higher = more splicing; Tetrahymena group I intron in knt gene, E. coli kanamycin selection, DiMSum; sequences stand for … in CUCUCU…GGAGGGAAAAGUUAUCAGGCAUGCACCUGGUAGCUAGUCUUUAAACCAAUAGAUUGCAUCGGUUUAAAAGGCAAGACCGUCAAAUUGCGGGAAAGGGGUCAACAGCCGUUCAGUACCAAGUCUCAGGGGAAACUUUGAGAUGGCCUUGCAAAGGGUAUGGUAAUAAGCUGACGGACAUGGUCCUAACCACGCAGCCAAGUCCUAAGUCAACAGAUCUUCUGUUGAUAUGGAUGCAGUUCACAGACUAAAUGUCGGUCGGGGAAGAUGUAUUCUUCUCAUAAGAUAUAGUCGGACCUCUCCUUAAUGGGAGCUAGCGGAUGAAGUGAUGCAACACUGGAGCCGCUGGGAACUAAUUUGUAUGCGAAAGUAUAUUGAUUAGUUUUGGAGUACUCGUGGUCG
In short: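 A randomised library covering all eight P1ex-region intron nucleotides was built with the intron in the knt kanamycin-resistance gene on pET-22b(+) and held in E. coli BL21(DE3). Cells were grown overnight at 37°C or 30°C on LB agar, with or without 25 μg/mL kanamycin, plus 100 μg/mL carbenicillin, 50 μM IPTG and 0.2% rhamnose, and pooled colonies were amplicon-sequenced on an Illumina HiSeq 2500. DiMSum fitness is the error-weighted combination of wild-type-normalised replicate fold changes, kanamycin versus none.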

Sequence | self-splicing fitness (ln) (30 °C) | self-splicing fitness (ln) (37 °C)
CAAGAGCAAUAUUACGGUUU | -3.5 ± 0.18 | -2.33 ± 0.2
GGUGAGCAAUAUUACGCGCU | -1.7 ± 0.42 | –
GGCAAGCAAUAUUACGCAAG | -4.16 ± 0.36 | -2.04 ± 0.23
CGCCAGCAAUAUUACGAUUG | -0.454 ± 0.06 | 0.047 ± 0.083
ACGUAGCAAUAUUACGGCAC | – | -1.73 ± 0.42
CCUAAGCAAUAUUACGCGGA | -2.38 ± 0.19 | -3.62 ± 0.46
AUGGAGCAAUAUUACGGGUA | -3.28 ± 0.27 | -3.06 ± 0.35
AAAUAGCAAUAUUACGCAAG | -2.14 ± 0.094 | -1.13 ± 0.11
ACUGAGCAAUAUUACGAGCG | -2.44 ± 0.14 | -0.615 ± 0.13
AUUGAGCAAUAUUACGGUUA | -3.06 ± 0.29 | -2.57 ± 0.22
GAGAAGCAAUAUUACGAAGU | -2.98 ± 0.24 | -1.16 ± 0.27
CGCAAGCAAUAUUACGCCGU | -2.67 ± 0.25 | -0.883 ± 0.14
UACUAGCAAUAUUACGCACU | -0.822 ± 0.068 | 0.229 ± 0.079
UUACAGCAAUAUUACGGGUC | -3.67 ± 0.19 | -2.51 ± 0.15
CUCGAGCAAUAUUACGCGUU | -3.72 ± 0.31 | -0.305 ± 0.2
GUAAAGCAAUAUUACGCGGA | -1.51 ± 0.086 | -1.3 ± 0.11
AUACAGCAAUAUUACGGAAU | -2.34 ± 0.1 | -1.54 ± 0.13
AGAUAGCAAUAUUACGGCGG | -0.92 ± 0.12 | -1.04 ± 0.15
GUAAAGCAAUAUUACGCCAU | -1.89 ± 0.1 | -0.44 ± 0.12
UUUGAGCAAUAUUACGUAAC | -2.01 ± 0.5 | –
GCGUAGCAAUAUUACGUGAC | -2.29 ± 0.29 | -1.15 ± 0.28
AUAGAGCAAUAUUACGGUGU | -1.24 ± 0.1 | -0.567 ± 0.15
CUCAAGCAAUAUUACGAUUU | -3.68 ± 0.21 | -2.4 ± 0.25
UCGCAGCAAUAUUACGGACU | -2.14 ± 0.16 | -0.513 ± 0.16
GAUGAGCAAUAUUACGCAGC | – | -1.61 ± 0.41
CCGAAGCAAUAUUACGUGUC | -3.49 ± 0.23 | -1.34 ± 0.16

Sequence | self-splicing fitness (ln) (30 °C) | self-splicing fitness (ln) (37 °C)
GCGCAGCAAUAUUACGACAA | -0.598 ± 0.12 | -0.342 ± 0.11
CAGGAGCAAUAUUACGUUUA | -3.29 ± 0.15 | -2.44 ± 0.15
UACGAGCAAUAUUACGACAG | -2.49 ± 0.21 | -0.615 ± 0.2
UAGCAGCAAUAUUACGCUGA | -2.19 ± 0.15 | -1.71 ± 0.18
UUUAAGCAAUAUUACGGGGC | -2.77 ± 0.3 | -3.55 ± 0.3
UUGCAGCAAUAUUACGGCAC | -0.586 ± 0.17 | -0.741 ± 0.19
UGGUAGCAAUAUUACGUGAU | -2.76 ± 0.25 | -1.34 ± 0.16
UGGCAGCAAUAUUACGAAGA | -1.98 ± 0.2 | -1.41 ± 0.2
CCCGAGCAAUAUUACGCGUA | -3.06 ± 0.21 | -2.05 ± 0.21
CCUAAGCAAUAUUACGGAAC | -3.35 ± 0.3 | -1.68 ± 0.24
UUUGAGCAAUAUUACGAUUG | -3.75 ± 0.47 | -2.41 ± 0.31
CCACAGCAAUAUUACGUUUC | -4.16 ± 0.22 | -2.44 ± 0.24
UCUAAGCAAUAUUACGAAUC | – | -2.3 ± 0.45
GUAAAGCAAUAUUACGACGU | 0.341 ± 0.11 | 0.169 ± 0.12
GCGCAGCAAUAUUACGUACG | -3.47 ± 0.2 | -1.09 ± 0.16
CCAUAGCAAUAUUACGCCUA | -2.85 ± 0.27 | -2.93 ± 0.35
AGGAAGCAAUAUUACGAACU | -0.35 ± 0.097 | 0.434 ± 0.13
AAGUAGCAAUAUUACGCCAU | -2.41 ± 0.23 | -0.903 ± 0.26
UGAUAGCAAUAUUACGACCA | -2.04 ± 0.23 | -0.327 ± 0.37
CCGCAGCAAUAUUACGAGUU | -4.11 ± 0.22 | -2.56 ± 0.21
CUGUAGCAAUAUUACGAGCG | -0.681 ± 0.094 | 0.0625 ± 0.12
GCCAAGCAAUAUUACGAGUA | -3.27 ± 0.13 | -1.61 ± 0.07
GCCCAGCAAUAUUACGUUUA | -1.7 ± 0.079 | -0.893 ± 0.078
CAACAGCAAUAUUACGCUUG | -2.71 ± 0.12 | -1.82 ± 0.14
CUCCAGCAAUAUUACGCACU | -2.56 ± 0.14 | -3.09 ± 0.32
CAGAAGCAAUAUUACGUGUA | -3.81 ± 0.17 | -1.25 ± 0.094

Sequence | self-splicing fitness (ln) (30 °C) | self-splicing fitness (ln) (37 °C)
CCUCAGCAAUAUUACGUUUA | -4.17 ± 0.2 | -2.57 ± 0.14
AUUAAGCAAUAUUACGUUAC | -2.99 ± 0.26 | -1.16 ± 0.27
CUUUAGCAAUAUUACGUAAA | – | -2.24 ± 0.28
GAACAGCAAUAUUACGAUGG | -3.04 ± 0.19 | -1.17 ± 0.13
AAAUAGCAAUAUUACGCGAC | -2.2 ± 0.17 | -1.03 ± 0.2
UAAAAGCAAUAUUACGAUAG | -0.934 ± 0.078 | -0.765 ± 0.088
CUAAAGCAAUAUUACGCCAC | -2.89 ± 0.49 | –
GAGCAGCAAUAUUACGUUGG | -0.945 ± 0.19 | -2.43 ± 0.23
CGAAAGCAAUAUUACGUAAU | -4.18 ± 0.18 | -2.3 ± 0.12
GAGCAGCAAUAUUACGCGGA | -2.11 ± 0.11 | -0.965 ± 0.09
AAACAGCAAUAUUACGCCGU | -2.54 ± 0.13 | -1.96 ± 0.11
UCAUAGCAAUAUUACGAGUG | -1.8 ± 0.11 | -0.999 ± 0.11
CUCCAGCAAUAUUACGGAAU | -4.1 ± 0.21 | -2.27 ± 0.16
ACGUAGCAAUAUUACGUAUA | -3.36 ± 0.33 | -2.1 ± 0.2
GCAGAGCAAUAUUACGUUCC | – | -1.51 ± 0.29
CUGCAGCAAUAUUACGGAAC | -3.88 ± 0.27 | -1.81 ± 0.27
UAAAAGCAAUAUUACGGCUG | 0.0596 ± 0.093 | 0.0696 ± 0.12
CAAGAGCAAUAUUACGUAGG | -1.4 ± 0.069 | -1.06 ± 0.1
GAUGAGCAAUAUUACGCCGG | – | -2.46 ± 0.45
UGGCAGCAAUAUUACGAUCC | -0.653 ± 0.3 | -0.564 ± 0.29
CUGUAGCAAUAUUACGGGUC | -4.47 ± 0.34 | -2.65 ± 0.26
UCAAAGCAAUAUUACGCGGG | -3.64 ± 0.19 | -2.14 ± 0.16
AAGGAGCAAUAUUACGGCGA | -2.84 ± 0.32 | -0.936 ± 0.3
AGUAAGCAAUAUUACGCCUA | -0.00931 ± 0.12 | 0.208 ± 0.12
ACGGAGCAAUAUUACGAUGU | -3.19 ± 0.2 | -2.52 ± 0.27
AGACAGCAAUAUUACGGUCU | -3.78 ± 0.23 | -2.48 ± 0.25

Source: the supplement of paper PMC7877785
